In this series the target is T1, DNA polymerase kappa catalytic core (Polκ19-526) (Homo sapiens, UniProt Q9UBT6 19-526).
T1 sequence: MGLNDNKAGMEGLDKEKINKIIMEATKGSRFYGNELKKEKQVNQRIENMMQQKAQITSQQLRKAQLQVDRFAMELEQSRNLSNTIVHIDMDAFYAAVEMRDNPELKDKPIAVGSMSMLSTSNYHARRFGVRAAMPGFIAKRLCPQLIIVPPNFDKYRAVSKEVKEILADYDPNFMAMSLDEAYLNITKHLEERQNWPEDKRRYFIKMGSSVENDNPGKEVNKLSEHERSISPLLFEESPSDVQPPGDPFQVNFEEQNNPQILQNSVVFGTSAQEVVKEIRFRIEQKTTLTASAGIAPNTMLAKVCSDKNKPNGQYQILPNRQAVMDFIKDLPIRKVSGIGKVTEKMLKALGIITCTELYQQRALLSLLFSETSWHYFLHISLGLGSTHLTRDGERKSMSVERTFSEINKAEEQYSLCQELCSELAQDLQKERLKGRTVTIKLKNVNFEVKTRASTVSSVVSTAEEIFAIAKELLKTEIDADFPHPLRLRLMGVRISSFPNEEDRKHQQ
Nature of the series: X-ray crystallography (3.2 Å); dATP, Mg2+ (ternary complex); Crystal structure only; cocrystallization conditions not in the material. The conditions noted are these: protein: recombinant; tags: N-terminal GST removed with PreScission protease; 5' overhang 5 nt on template; recessed 3' primer end.

B1: 13-nt/18-nt primer/template with 8-oxoG (dsDNA)
DNA 1: CCTAGGAGTCCTTCCCCC
DNA 2: GGGGGAAGGACTC
modifications: template G5 = 7,8-dihydro-8-oxoguanine; primer 3' terminal C = dideoxycytidine
As to B1, the binding result was “binds”.

For the origin of these results see publication PMC2686167, “Structure of Human DNA Polymerase κ Inserting dATP Opposite an 8-OxoG DNA Lesion”.
